Reference: the supplement of paper PMC10065799, “High-throughput profiling of sequence recognition by tyrosine kinases and SH2 domains using bacterial peptide display” (eLife, 2023)

Columns and labels:
Grb2 SH2 = Grb2 SH2 (UniProt P62993); assay: SH2 binding enrichment of the phosphorylated peptide, bacterial display (enrichment ratio); higher = better substrate or ligand; peptides without Tyr show the background
SHP2-C SH2 = assay: as above
c-Src SH2 = assay: as above
EPHB1 = EPHB1 (UniProt P54762); assay: phosphorylation enrichment, bacterial display (enrichment ratio); higher = better substrate or ligand; peptides without Tyr show the background
Chain of EPHB1 (P54762 whole entry, looked up): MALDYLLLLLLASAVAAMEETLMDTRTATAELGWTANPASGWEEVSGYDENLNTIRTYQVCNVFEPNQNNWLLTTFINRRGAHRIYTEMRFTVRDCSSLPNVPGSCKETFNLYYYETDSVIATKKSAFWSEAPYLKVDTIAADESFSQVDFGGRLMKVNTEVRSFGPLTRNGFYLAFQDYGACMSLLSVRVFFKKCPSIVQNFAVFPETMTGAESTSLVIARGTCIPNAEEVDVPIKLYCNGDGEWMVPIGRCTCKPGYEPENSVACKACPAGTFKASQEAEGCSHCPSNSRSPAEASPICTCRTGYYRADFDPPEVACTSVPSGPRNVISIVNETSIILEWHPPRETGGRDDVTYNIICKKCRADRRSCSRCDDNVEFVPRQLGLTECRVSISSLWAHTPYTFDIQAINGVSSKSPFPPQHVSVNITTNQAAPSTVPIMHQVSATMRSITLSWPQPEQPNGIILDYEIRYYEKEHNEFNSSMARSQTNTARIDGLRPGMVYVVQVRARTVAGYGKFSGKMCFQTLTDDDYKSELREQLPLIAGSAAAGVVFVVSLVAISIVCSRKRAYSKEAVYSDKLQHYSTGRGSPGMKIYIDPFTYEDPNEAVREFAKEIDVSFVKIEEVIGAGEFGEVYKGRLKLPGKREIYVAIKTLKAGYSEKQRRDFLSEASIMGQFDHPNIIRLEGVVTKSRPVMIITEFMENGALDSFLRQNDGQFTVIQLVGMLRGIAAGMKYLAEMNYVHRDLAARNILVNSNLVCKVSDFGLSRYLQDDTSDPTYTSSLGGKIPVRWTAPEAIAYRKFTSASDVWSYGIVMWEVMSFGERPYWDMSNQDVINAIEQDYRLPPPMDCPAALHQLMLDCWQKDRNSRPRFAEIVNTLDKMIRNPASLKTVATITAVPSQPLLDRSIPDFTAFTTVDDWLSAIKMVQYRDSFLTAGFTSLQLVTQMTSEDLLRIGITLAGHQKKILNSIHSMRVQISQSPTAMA

Fyn = Fyn (UniProt P06241); assay: as above
EPHB2 = EPHB2 (UniProt P29323); assay: as above
Fer (mouse) = assay: as above
MERTK = MERTK (UniProt Q12866); assay: as above
Chain of MERTK (Q12866 whole entry, looked up): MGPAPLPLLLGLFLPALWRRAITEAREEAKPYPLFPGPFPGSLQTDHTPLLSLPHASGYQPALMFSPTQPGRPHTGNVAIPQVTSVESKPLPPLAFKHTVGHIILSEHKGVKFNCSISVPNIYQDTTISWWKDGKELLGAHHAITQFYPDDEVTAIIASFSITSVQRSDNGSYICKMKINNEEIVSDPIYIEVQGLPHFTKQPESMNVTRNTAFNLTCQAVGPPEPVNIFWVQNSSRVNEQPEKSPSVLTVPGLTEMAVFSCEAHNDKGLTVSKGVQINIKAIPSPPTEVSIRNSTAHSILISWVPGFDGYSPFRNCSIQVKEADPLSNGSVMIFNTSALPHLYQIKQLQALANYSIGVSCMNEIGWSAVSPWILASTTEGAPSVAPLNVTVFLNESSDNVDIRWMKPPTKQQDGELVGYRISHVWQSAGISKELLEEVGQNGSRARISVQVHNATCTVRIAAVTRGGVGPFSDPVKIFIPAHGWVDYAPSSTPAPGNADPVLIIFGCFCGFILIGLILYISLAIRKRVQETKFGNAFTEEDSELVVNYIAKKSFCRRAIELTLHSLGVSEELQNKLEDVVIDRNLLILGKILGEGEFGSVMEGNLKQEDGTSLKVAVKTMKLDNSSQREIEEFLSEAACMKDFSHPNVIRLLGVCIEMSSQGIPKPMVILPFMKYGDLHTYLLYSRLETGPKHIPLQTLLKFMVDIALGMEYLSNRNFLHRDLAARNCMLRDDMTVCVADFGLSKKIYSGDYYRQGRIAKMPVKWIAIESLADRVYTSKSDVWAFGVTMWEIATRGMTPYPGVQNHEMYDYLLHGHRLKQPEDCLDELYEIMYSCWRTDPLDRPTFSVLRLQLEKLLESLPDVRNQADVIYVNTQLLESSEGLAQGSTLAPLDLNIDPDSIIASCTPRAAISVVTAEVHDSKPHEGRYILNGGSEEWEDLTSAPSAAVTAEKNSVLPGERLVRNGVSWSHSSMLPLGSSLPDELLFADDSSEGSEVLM

Jak2 = Jak2 (UniProt O60674); assay: as above
Hck = Hck (UniProt P08631); assay: as above
Chain of Hck (P08631 whole entry, looked up): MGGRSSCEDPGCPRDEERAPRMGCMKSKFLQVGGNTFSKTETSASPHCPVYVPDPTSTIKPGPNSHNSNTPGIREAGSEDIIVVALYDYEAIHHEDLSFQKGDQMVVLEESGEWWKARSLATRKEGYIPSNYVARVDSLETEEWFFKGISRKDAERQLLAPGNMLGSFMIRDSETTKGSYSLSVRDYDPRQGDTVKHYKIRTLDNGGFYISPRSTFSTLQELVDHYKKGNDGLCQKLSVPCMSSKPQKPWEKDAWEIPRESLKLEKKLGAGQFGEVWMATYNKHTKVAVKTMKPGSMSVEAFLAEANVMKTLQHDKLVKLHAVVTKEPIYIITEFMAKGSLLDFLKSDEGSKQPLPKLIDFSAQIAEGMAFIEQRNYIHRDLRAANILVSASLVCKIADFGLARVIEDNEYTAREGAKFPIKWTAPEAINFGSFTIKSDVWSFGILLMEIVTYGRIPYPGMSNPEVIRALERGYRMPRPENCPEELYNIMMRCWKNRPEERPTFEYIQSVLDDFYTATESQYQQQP

FGFR1 = FGFR1 (UniProt P11362); assay: as above
Chain of FGFR1 (P11362 whole entry, looked up): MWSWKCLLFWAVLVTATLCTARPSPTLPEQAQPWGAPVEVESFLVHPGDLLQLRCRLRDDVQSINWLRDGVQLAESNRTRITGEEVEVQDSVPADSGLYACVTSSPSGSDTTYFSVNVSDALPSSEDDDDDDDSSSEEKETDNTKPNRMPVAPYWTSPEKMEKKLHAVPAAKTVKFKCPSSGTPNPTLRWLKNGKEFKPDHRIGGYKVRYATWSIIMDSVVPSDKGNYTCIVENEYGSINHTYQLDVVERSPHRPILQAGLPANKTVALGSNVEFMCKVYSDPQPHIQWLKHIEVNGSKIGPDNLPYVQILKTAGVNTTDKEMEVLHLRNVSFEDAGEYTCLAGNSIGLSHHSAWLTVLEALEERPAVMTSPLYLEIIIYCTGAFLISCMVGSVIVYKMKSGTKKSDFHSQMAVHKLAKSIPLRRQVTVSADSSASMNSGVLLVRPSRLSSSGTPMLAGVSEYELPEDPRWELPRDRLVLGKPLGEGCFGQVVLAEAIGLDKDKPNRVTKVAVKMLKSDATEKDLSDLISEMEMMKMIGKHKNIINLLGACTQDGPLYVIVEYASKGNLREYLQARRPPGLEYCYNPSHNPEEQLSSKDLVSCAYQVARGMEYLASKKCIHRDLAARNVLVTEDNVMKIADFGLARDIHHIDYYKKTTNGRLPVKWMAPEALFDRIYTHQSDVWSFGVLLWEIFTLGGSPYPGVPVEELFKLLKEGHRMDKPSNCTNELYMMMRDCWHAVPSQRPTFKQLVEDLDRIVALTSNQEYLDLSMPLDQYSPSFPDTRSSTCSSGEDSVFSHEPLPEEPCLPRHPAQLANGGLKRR

c-Src = assay: as above
Fes = Fes (UniProt P07332); assay: as above
Chain of Fes (P07332 whole entry, looked up): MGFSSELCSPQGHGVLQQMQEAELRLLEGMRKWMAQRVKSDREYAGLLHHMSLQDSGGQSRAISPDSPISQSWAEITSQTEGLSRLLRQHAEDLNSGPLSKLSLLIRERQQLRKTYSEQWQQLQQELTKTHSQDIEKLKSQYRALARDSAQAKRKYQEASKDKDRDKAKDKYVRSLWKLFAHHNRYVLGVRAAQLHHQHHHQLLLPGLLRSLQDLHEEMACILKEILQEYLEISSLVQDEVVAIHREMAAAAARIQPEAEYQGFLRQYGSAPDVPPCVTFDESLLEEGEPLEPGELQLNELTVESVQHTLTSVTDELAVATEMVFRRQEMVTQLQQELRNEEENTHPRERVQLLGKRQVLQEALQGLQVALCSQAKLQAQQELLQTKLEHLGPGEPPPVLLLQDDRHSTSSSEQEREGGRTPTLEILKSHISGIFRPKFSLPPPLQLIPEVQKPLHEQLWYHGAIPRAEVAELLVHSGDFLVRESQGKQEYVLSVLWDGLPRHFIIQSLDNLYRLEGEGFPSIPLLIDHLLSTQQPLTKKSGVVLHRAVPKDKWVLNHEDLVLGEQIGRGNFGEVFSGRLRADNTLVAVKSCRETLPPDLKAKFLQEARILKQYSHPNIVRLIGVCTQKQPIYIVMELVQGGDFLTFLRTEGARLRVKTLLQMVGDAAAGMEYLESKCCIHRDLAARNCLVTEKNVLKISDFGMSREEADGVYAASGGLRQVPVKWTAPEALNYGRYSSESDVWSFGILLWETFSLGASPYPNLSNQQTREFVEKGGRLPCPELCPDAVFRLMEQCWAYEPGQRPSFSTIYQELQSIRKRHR

FGFR3 = FGFR3 (UniProt P22607); assay: as above
Chain of FGFR3 (P22607 whole entry, looked up): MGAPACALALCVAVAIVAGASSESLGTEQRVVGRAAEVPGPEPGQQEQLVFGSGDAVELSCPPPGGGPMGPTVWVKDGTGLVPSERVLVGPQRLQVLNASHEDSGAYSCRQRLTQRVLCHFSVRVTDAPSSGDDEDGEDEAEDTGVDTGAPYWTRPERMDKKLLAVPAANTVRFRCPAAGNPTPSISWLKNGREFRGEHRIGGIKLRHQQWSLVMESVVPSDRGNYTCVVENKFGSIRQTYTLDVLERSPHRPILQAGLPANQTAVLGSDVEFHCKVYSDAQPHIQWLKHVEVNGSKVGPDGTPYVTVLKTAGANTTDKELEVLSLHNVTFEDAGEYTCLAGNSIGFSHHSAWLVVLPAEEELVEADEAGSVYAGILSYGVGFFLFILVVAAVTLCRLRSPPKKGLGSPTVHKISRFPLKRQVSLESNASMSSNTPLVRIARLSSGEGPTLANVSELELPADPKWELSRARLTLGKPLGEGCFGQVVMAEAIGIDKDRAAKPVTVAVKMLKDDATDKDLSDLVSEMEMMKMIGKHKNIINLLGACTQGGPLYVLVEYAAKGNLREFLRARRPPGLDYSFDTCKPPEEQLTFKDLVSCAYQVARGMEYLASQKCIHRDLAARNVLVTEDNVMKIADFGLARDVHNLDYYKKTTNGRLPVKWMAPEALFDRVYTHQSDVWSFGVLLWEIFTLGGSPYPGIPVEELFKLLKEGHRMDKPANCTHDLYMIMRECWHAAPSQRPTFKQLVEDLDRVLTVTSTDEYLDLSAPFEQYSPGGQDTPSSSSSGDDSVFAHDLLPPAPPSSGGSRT

c-Abl (mouse) = assay: as above
AncSZ = assay: as above
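Wherever SH2 binding enrichment of the phosphorylated peptide, bacterial display is given: peptide library displayed on the E. coli surface as eCPX fusions, selected cells deep-sequenced, score is each peptide's frequency after selection divided by its frequency in the input.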
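Wherever phosphorylation enrichment, bacterial display is given: 11-residue human phosphosite peptides and single-mutation variants displayed on the E. coli surface, counted by deep sequencing, each peptide's frequency after selection divided by its frequency in the unselected input library; frequency after pTyr selection over input frequency; kinase dosed for 20-30% of maximal phosphorylation in three min.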

Sequence | SH2 binding enrichment (Grb2 SH2) | SH2 binding enrichment (SHP2-C SH2) | SH2 binding enrichment (c-Src SH2) | phosphorylation enrichment (EPHB1) | phosphorylation enrichment (Fyn) | phosphorylation enrichment (EPHB2) | phosphorylation enrichment (Fer (mouse)) | phosphorylation enrichment (MERTK) | phosphorylation enrichment (Jak2) | phosphorylation enrichment (Hck) | phosphorylation enrichment (FGFR1) | phosphorylation enrichment (c-Src) | phosphorylation enrichment (Fes) | phosphorylation enrichment (FGFR3) | phosphorylation enrichment (c-Abl (mouse)) | phosphorylation enrichment (AncSZ)
LFLACYFIGGG [UBD_Y161_C162F] | 0.861 | 0.855 | 0.793 | 0.773 | 0.502 | 0.612 | 0.533 | 0.45 | 1.35 | 0.55 | 0.453 | 0.647 | 1.77 | 1.05 | 1.03 | 1.16
FMGVEYSSCDT [EPHA3_Y937_T933M] | 0.598 | 0.588 | 1.43 | 0.683 | 0.441 | 0.756 | 0.64 | 0.479 | 1.2 | 0.61 | 0.601 | 0.521 | 1.31 | 0.838 | 0.827 | 1.32
AEKPKYQISNI [TJP1_Y1602_N1605S] | 0.739 | 0.516 | 0.503 | 0.286 | 0.372 | 0.376 | 0.377 | 0.333 | 0.401 | 0.41 | 0.358 | 0.36 | 0.544 | 0.409 | 0.54 | 0.896
DGQVNYEEFVQ [CALM1_Y139] | 0.784 | 0.493 | 0.399 | 1.62 | 0.505 | 1.28 | 0.659 | 0.487 | 1.2 | 0.626 | 0.608 | 0.576 | 1.42 | 0.841 | 0.957 | 1.33
RAFSWYQHQRA [NDST1_Y714_YF] | 1.23 | 1.23 | 0.934 | 0.74 | 0.769 | 0.855 | 0.794 | 0.424 | 1.25 | 0.611 | 0.763 | 0.489 | 1.72 | 1 | 1.09 | 1.54
SDVSSYLEGQA [GCG_Y110] | 0.727 | 0.738 | 0.41 | 0.469 | 0.447 | 0.76 | 0.775 | 0.432 | 0.769 | 0.488 | 0.456 | 0.474 | 0.938 | 0.657 | 0.678 | 0.867
QMVDMYASSYM [AVPR2_Y124_G122D] | 0.742 | 0.602 | 1.33 | 0.558 | 0.876 | 0.571 | 0.631 | 0.842 | 0.905 | 1.58 | 0.579 | 1.29 | 1.43 | 0.815 | 0.891 | 1.22

Further lines, with some results ahead:

SH2 binding enrichment (Grb2 SH2) | SH2 binding enrichment (SHP2-C SH2) | SH2 binding enrichment (c-Src SH2) | Sequence | phosphorylation enrichment (EPHB1) | phosphorylation enrichment (Fyn) | phosphorylation enrichment (EPHB2) | phosphorylation enrichment (Fer (mouse)) | phosphorylation enrichment (MERTK) | phosphorylation enrichment (Jak2) | phosphorylation enrichment (Hck) | phosphorylation enrichment (FGFR1) | phosphorylation enrichment (c-Src) | phosphorylation enrichment (Fes) | phosphorylation enrichment (FGFR3) | phosphorylation enrichment (c-Abl (mouse)) | phosphorylation enrichment (AncSZ)
1.09 | 0.604 | 0.591 | PHMQTYEVDHN [SDHB_Y61_L65H] | 0.758 | 1.03 | 3.83 | 0.571 | 0.425 | 0.94 | 0.506 | 0.676 | 1.04 | 1.01 | 0.783 | 0.864 | 1.31
0.88 | 0.896 | 0.494 | PLGVLYKVKVF [PTS_Y128_V124L_YF] | 0.922 | 0.801 | 0.824 | 0.692 | 0.446 | 1.23 | 0.553 | 0.562 | 0.311 | 1.64 | 0.862 | 0.973 | 1.54
1.57 | 1.5 | 0.972 | RAVLLYEFVGK [NATD1_Y45_YF] | 23.8 | 5.5 | 27.1 | 14.9 | 12.7 | 1.56 | 8.33 | 2.12 | 5.67 | 3.12 | 2.29 | 1.54 | 2.71
1.03 | 0.997 | 0.67 | SVVVPYEPPEG [TP53_Y220_V225G] | 0.685 | 0.525 | 0.492 | 0.445 | 0.559 | 1.01 | 0.503 | 0.533 | 0.446 | 0.929 | 0.714 | 0.633 | 1.02
2.05 | 1.98 | 1.51 | KRLFAYKMLMA [TMC2_Y209_Q205R_YF] | 0.484 | 0.433 | 0.528 | 0.59 | 0.375 | 0.669 | 0.455 | 0.458 | 0.367 | 0.867 | 0.683 | 0.58 | 0.767
0.613 | 0.48 | 0.322 | LECEWYKNGVK [TTN_Y2112_P2107L] | 1.36 | 0.619 | 0.923 | 0.771 | 0.921 | 1.39 | 0.931 | 0.744 | 0.576 | 2.16 | 1.01 | 1.16 | 2.15
0.868 | 0.548 | 0.525 | LINLKYSVEEE [PCDH19_Y27] | 0.755 | 0.579 | 0.755 | 0.806 | 0.583 | 1.88 | 0.447 | 0.525 | 1.19 | 2.46 | 0.895 | 1.12 | 1.36
0.985 | 0.692 | 0.801 | NTVDYYDLYGG [PTPN11_Y63_G60V] | 4.4 | 6.7 | 3.7 | 1.19 | 1.35 | 1.47 | 5.68 | 15.3 | 4.25 | 1.21 | 13.1 | 0.788 | 2.56
0.735 | 0.747 | 0.572 | ESDFTYSSSFE [SRPK2_Y427_YF] | 0.531 | 0.821 | 0.537 | 0.536 | 0.438 | 1.02 | 0.752 | 0.53 | 1.08 | 1.09 | 0.723 | 0.614 | 1.03
